According to patent US20150344570A1 (published 2015):

What was measured:
[1] = molecular target: T1, FcγRIIb extracellular domain with C-terminal His tag (human, UniProt P31994 43-217); experiment: SPR (Biacore), captured antibody, FcγR as analyte; relative binding
T1 construct: extracellular domain; expressed in FreeStyle293 cells; analyte in Biacore; also called FcgRIIb; 2b
T1 sequence (looked up): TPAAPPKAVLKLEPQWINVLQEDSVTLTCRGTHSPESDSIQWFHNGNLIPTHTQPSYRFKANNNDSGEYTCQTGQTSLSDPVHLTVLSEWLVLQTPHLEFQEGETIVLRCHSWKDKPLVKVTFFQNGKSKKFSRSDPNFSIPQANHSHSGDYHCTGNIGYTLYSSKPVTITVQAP

[2] = molecular target: T2, FcγRIa extracellular domain with C-terminal His tag (human, UniProt P12314 16-292); experiment: as above
T2 construct: extracellular domain; expressed in FreeStyle293 cells; analyte in Biacore; also called FcgRI; 1a

[3] = molecular target: T2, FcγRIa extracellular domain with …; experiment: SPR (Biacore); He/Con_1a divided by He/Con_2b (FcγRIIb as reference)
[4] = molecular target: T3, FcγRIa (human, UniProt P12314 16-292); experiment: SPR (Biacore), antibody captured on antigen-peptide chip, FcγRIa as analyte; binding activity relative to control GpH7-A5/GpH7-B3/GpL16-k0 (HeCon Ab) x100
T3 construct: extracellular domain; Soluble extracellular domain with C-terminal His tag, expressed in FreeStyle293 cells; analyte in Biacore; also called FcgRI; CD64; not shown: His tag attached to the C terminus
Protocol: Analysis of interaction between objective antibody and the FcγR was carried out using Biacore T100 (GE Healthcare). HBS-EP+ (GE Healthcare) was used as the running buffer, and the measurement temperature was set to 25° C. Chips produced by immobilizing the antigen peptide by the amine coupling method to a Series S Sencor Chip CM5 (GE Healthcare), or alternatively, chips produced by allowing preliminarily biotinylated antigen peptides to interact with and immobilize onto a Series S Sensor Chip SA (certified) (GE Healthcare) were used. Antibodies of interest were captured onto an antigen peptide-immobilized chip, and allowed to interact to each FcγR diluted with running buffer. To regenerate and repeatedly use the chip, the antibodies captured on the chip were washed off by reacting 10 mM glycine-HCl, pH 1.5.

T2 sequence (P12314 16-292): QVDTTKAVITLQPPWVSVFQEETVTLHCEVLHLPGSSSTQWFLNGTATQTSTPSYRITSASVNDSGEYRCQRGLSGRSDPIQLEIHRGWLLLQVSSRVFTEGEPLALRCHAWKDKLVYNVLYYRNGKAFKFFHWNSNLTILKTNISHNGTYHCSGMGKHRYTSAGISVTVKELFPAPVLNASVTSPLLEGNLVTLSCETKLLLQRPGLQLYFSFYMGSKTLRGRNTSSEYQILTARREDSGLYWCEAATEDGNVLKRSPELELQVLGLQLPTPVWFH
T3 sequence (P12314 16-292): as above

B1: GpH7-A5/GpH7-B3 variant D265_11K/GpL16-k0 (antibody, human IgG1, kappa)
heavy 1: not shown
heavy 2: not shown
light: DIVMTQSPLSLPVTPGEPASISCQASESLVHSNRNTYLHWYLQKPGQSPQLLIYKVSNRFSGVPDRFSGSGSGTDFTLKISRVEAEDVGVYYCSQNTHVPPTFGQGTKVEIERTVAAPSVFIFPPSDEQLKSGTASVVCLLNNFYPREAKVQWKVDNALQSGNSQESVTEQDSKDSTYSLSSTLTLSKADYEKHKVYACEVTHQGLSSPVTKSFNRGEC
notes: He Ab; IgG1, mutation in one H chain
In the case of B1, the He/Con_2b [1] is reported as 14.9 % of HeCon Ab (GpH7-A5/GpH7-B3/GpL16-k0 = 100), the He/Con_1a [2] is reported as 43.2 % of HeCon Ab (GpH7-A5/GpH7-B3/GpL16-k0 = 100) and the “He_1a/2b (Ia/IIb)” value [3] is reported as 2.9 ratio.

B2: GpH7-A5/GpH7-B3 variant Y300_13S/GpL16-k0 (heterodimerized antibody, He Ab) (antibody, human IgG1, kappa)
heavy 1: not shown
heavy 2: not shown
light: B1 light
notes: Anti-glypican-3 IgG1; alteration only in the GpH7-B3 (K439E) chain; other H chain is GpH7-A5 (D356K/H435R)
For B2, the He/Con_1a [4] was 111 % of control (=100).

B3: GpH7-A5/GpH7-B3 variant Y300_14T/GpL16-k0 (heterodimerized antibody, He Ab) (antibody, human IgG1, kappa)
heavy 1: not shown
heavy 2: not shown
light: B1 light
notes: as for B2
With B3 the He/Con_1a [4] was 112 % of control (=100).

B4: GpH7-A5/GpH7-B3 variant V266_05P/GpL16-k0 (antibody, human IgG1, kappa)
heavy 1: not shown
heavy 2: not shown
light: B1 light
notes: as for B1
For B4, the He/Con_2b [1] was 0.4 % of HeCon Ab (GpH7-A5/GpH7-B3/GpL16-k0 = 100), the He/Con_1a [2] was 71.9 % of HeCon Ab (GpH7-A5/GpH7-B3/GpL16-k0 = 100) and the “He_1a/2b (Ia/IIb)” value [3] was 205 ratio.

B5: GpH7-A5/GpH7-B3 variant D265_19Q/GpL16-k0 (antibody, human IgG1, kappa)
heavy 1: not shown
heavy 2: not shown
light: B1 light
notes: as for B1
With B5 the He/Con_2b [1] was 33.4 % of HeCon Ab (GpH7-A5/GpH7-B3/GpL16-k0 = 100), the He/Con_1a [2] was 88.8 % of HeCon Ab (GpH7-A5/GpH7-B3/GpL16-k0 = 100) and the “He_1a/2b (Ia/IIb)” value [3] was 2.66 ratio.

B6: GpH7-A5/GpH7-B3 variant V266_04F/GpL16-k0 (antibody, human IgG1, kappa)
heavy 1: not shown
heavy 2: not shown
light: B1 light
notes: as for B1
B6 was tested, and the He/Con_2b [1] was 57.6 % of HeCon Ab (GpH7-A5/GpH7-B3/GpL16-k0 = 100), the He/Con_1a [2] was 96.7 % of HeCon Ab (GpH7-A5/GpH7-B3/GpL16-k0 = 100) and the “He_1a/2b (Ia/IIb)” value [3] was 1.68 ratio.

B7: GpH7-A5/GpH7-B3 variant Y300_10E/GpL16-k0 (heterodimerized antibody, He Ab) (antibody, human IgG1, kappa)
heavy 1: not shown
heavy 2: not shown
light: B1 light
notes: as for B2
B7 was tested, and the He/Con_1a [4] was 114 % of control (=100).

B8: GpH7-A5/GpH7-B3 variant Y296_18N/GpL16-k0 (heterodimerized antibody, He Ab) (antibody, human IgG1, kappa)
heavy 1: not shown
heavy 2: not shown
light: B1 light
notes: as for B2
For B8, the He/Con_1a [4] was 106 % of control (=100).

B9: GpH7-A5/GpH7-B3 variant V266_11K/GpL16-k0 (antibody, human IgG1, kappa)
heavy 1: not shown
heavy 2: not shown
light: B1 light
notes: as for B1
For B9, the He/Con_2b [1] was 1 % of HeCon Ab (GpH7-A5/GpH7-B3/GpL16-k0 = 100), the He/Con_1a [2] was 64.4 % of HeCon Ab (GpH7-A5/GpH7-B3/GpL16-k0 = 100) and the “He_1a/2b (Ia/IIb)” value [3] was 63.5 ratio.

B10: GpH7-A5/GpH7-B3 variant Y300_08L/GpL16-k0 (heterodimerized antibody, He Ab) (antibody, human IgG1, kappa)
heavy 1: not shown
heavy 2: not shown
light: B1 light
notes: as for B2
With B10 the He/Con_1a [4] was 113 % of control (=100).

B11: GpH7-A5/GpH7-B3 variant D265_14T/GpL16-k0 (antibody, human IgG1, kappa)
heavy 1: not shown
heavy 2: not shown
light: B1 light
notes: as for B1
With B11 the He/Con_2b [1] was 16 % of HeCon Ab (GpH7-A5/GpH7-B3/GpL16-k0 = 100), the He/Con_1a [2] was 78.5 % of HeCon Ab (GpH7-A5/GpH7-B3/GpL16-k0 = 100) and the “He_1a/2b (Ia/IIb)” value [3] was 4.9 ratio.

B12: GpH7-A5/GpH7-B3 variant D265_12R/GpL16-k0 (antibody, human IgG1, kappa)
heavy 1: not shown
heavy 2: not shown
light: B1 light
notes: as for B1
B12 was tested, and the He/Con_2b [1] was 15 % of HeCon Ab (GpH7-A5/GpH7-B3/GpL16-k0 = 100), the He/Con_1a [2] was 44.3 % of HeCon Ab (GpH7-A5/GpH7-B3/GpL16-k0 = 100) and the “He_1a/2b (Ia/IIb)” value [3] was 2.96 ratio.

B13: GpH7-A5/GpH7-B3 variant Y300_06M/GpL16-k0 (heterodimerized antibody, He Ab) (antibody, human IgG1, kappa)
heavy 1: not shown
heavy 2: not shown
light: B1 light
notes: as for B2
B13 was tested, and the He/Con_1a [4] was 112 % of control (=100).

B14: GpH7-A5/GpH7-B3 variant Y296_14T/GpL16-k0 (heterodimerized antibody, He Ab) (antibody, human IgG1, kappa)
heavy 1: not shown
heavy 2: not shown
light: B1 light
notes: as for B2
With B14 the He/Con_1a [4] was 105 % of control (=100).

B15: GpH7-A5/GpH7-B3 variant D265_16H/GpL16-k0 (antibody, human IgG1, kappa)
heavy 1: not shown
heavy 2: not shown
light: B1 light
notes: as for B1
For B15, the He/Con_2b [1] was 38.3 % of HeCon Ab (GpH7-A5/GpH7-B3/GpL16-k0 = 100), the He/Con_1a [2] was 85.4 % of HeCon Ab (GpH7-A5/GpH7-B3/GpL16-k0 = 100) and the “He_1a/2b (Ia/IIb)” value [3] was 2.23 ratio.

B16: GpH7-A5/GpH7-B3 variant Y300_02A/GpL16-k0 (heterodimerized antibody, He Ab) (antibody, human IgG1, kappa)
heavy 1: not shown
heavy 2: not shown
light: B1 light
notes: as for B2
B16 was tested, and the He/Con_1a [4] was 112 % of control (=100).

B17: GpH7-A5/GpH7-B3 variant V266_10E/GpL16-k0 (antibody, human IgG1, kappa)
heavy 1: not shown
heavy 2: not shown
light: B1 light
notes: as for B1
For B17, the He/Con_2b [1] was 15.2 % of HeCon Ab (GpH7-A5/GpH7-B3/GpL16-k0 = 100), the He/Con_1a [2] was 81.9 % of HeCon Ab (GpH7-A5/GpH7-B3/GpL16-k0 = 100) and the “He_1a/2b (Ia/IIb)” value [3] was 5.37 ratio.

B18: GpH7-A5/GpH7-B3 variant Y296_19Q/GpL16-k0 (heterodimerized antibody, He Ab) (antibody, human IgG1, kappa)
heavy 1: not shown
heavy 2: not shown
light: B1 light
notes: as for B2
B18 was tested, and the He/Con_1a [4] was 112 % of control (=100).

B19: GpH7-A5/GpH7-B3 variant D265_13S/GpL16-k0 (antibody, human IgG1, kappa)
heavy 1: not shown
heavy 2: not shown
light: B1 light
notes: as for B1
For B19, the He/Con_2b [1] was 11.3 % of HeCon Ab (GpH7-A5/GpH7-B3/GpL16-k0 = 100), the He/Con_1a [2] was 68.7 % of HeCon Ab (GpH7-A5/GpH7-B3/GpL16-k0 = 100) and the “He_1a/2b (Ia/IIb)” value [3] was 6.07 ratio.

B20: GpH7-A5/GpH7-B3 variant D265_02A/GpL16-k0 (antibody, human IgG1, kappa)
heavy 1: not shown
heavy 2: not shown
light: B1 light
notes: as for B1
B20 was tested, and the He/Con_2b [1] was 19.9 % of HeCon Ab (GpH7-A5/GpH7-B3/GpL16-k0 = 100), the He/Con_1a [2] was 84.5 % of HeCon Ab (GpH7-A5/GpH7-B3/GpL16-k0 = 100) and the “He_1a/2b (Ia/IIb)” value [3] was 4.25 ratio.

B21: GpH7-A5/GpH7-B3 variant Y300_11K/GpL16-k0 (heterodimerized antibody, He Ab) (antibody, human IgG1, kappa)
heavy 1: not shown
heavy 2: not shown
light: B1 light
notes: as for B2
B21 was tested, and the He/Con_1a [4] was 107 % of control (=100).

B22: GpH7-A5/GpH7-B3 variant D265_03V/GpL16-k0 (antibody, human IgG1, kappa)
heavy 1: not shown
heavy 2: not shown
light: B1 light
notes: as for B1
B22 was tested, and the He/Con_2b [1] was 3.2 % of HeCon Ab (GpH7-A5/GpH7-B3/GpL16-k0 = 100), the He/Con_1a [2] was 55.7 % of HeCon Ab (GpH7-A5/GpH7-B3/GpL16-k0 = 100) and the “He_1a/2b (Ia/IIb)” value [3] was 17.3 ratio.
